This assay has as its target PAM4 antigen (human pancreatic cancer mucin, CaPan1) (human). The assay can be described thus: ELISA on target mucin antigen (FIG. 9). A general note: An ELISA detects its analyte on a solid surface through an enzyme-linked reagent.

B1: monovalent bsPAM4 chemical conjugate (PAM4-Fab′ x anti-DTPA-Fab′) (bispecific antibody, part only; not given: Anti-DTPA Fab′ and constant parts, V domains shown, part only)
VH: QVQLQESGPELVKPGASVKMSCKASGYTFPSYVLHWVKQKPGQGLEWIGYINPYNDGTQYNEKFKGKATLTSDKSSSTAYMELSRLTSEDSAVYYCARGFGGSYGFAYWGQGTLITVSS
VL: DIQLTQSPAIMSASPGEKVTMTCSASSSVSSSYLYWYQQKPGSSPKLWIYSTSNLASGVPARFSGSGSGTSYSLTISSMEAEDAASYFCHQWNRYPYTFGGGTKLEIKR
On to B1, for which the 50% effective concentration (EC50) (usually the concentration that produces a half-maximal response) was determined as 30.6 nM.

The record behind these values is US20090304580A1.
